This is an account of results in patent US20220089784A1 (University of California, published 2022).

Sequences and labels used below:
T1: BoNT/C1 holotoxin (Clostridium botulinum, UniProt P18640 2-1291)
T1 sequence: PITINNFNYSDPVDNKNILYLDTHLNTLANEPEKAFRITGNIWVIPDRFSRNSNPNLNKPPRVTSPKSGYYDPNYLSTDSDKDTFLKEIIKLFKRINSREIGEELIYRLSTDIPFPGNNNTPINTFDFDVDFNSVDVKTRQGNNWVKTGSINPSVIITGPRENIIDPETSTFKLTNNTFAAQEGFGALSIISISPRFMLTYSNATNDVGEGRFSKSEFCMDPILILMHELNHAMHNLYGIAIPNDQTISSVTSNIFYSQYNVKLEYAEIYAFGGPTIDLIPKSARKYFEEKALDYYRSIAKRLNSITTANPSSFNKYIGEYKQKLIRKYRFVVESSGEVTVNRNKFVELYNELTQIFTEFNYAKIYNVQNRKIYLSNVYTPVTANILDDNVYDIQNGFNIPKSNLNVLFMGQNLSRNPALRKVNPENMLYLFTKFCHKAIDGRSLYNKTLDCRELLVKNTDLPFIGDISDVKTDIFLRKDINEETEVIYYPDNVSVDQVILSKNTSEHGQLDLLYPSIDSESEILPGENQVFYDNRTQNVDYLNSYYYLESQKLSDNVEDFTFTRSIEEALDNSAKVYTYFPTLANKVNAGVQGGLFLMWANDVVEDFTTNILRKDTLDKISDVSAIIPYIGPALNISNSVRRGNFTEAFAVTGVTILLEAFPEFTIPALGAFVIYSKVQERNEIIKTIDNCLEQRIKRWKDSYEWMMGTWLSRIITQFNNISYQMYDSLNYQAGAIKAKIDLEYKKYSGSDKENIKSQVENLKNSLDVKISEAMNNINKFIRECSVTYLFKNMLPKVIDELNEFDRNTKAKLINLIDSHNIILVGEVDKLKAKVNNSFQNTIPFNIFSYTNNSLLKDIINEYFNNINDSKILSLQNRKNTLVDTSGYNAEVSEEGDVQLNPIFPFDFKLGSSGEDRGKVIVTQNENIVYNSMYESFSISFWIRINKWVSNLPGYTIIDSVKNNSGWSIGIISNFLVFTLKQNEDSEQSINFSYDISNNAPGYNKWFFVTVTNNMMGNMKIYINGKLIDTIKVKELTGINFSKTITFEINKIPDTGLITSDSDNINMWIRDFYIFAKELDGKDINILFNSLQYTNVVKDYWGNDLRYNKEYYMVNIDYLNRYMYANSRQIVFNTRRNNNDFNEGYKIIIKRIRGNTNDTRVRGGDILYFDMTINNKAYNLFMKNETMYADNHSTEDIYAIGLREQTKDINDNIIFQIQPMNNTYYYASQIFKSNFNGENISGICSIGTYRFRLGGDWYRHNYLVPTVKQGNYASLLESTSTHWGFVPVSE

B1: 1C8 scFv (scFv, V domains shown)
VH: QVQLQQSGAEVKKPGASVKVSCKASAFTFNSNYIHWVRLAPGQGPEWMGIINPDGGRTTYAQKFQGRITMTTDTSTYAVYMELSSLRSEDTAVYYCARGATNIPYGMSVWGQGTTVTVSS
VL: DIVMTQSPSSLSASVGDRVTITCRASQAIRNDLGWYQQEPGKAPKLLIYAASTLQSGVPSRFSGRGSGTDFTLTISSLQPEDFATYYCLQHNSYPLTFGGGTKVDIK
notes: human
B2: 4C10 scFv (scFv, V domains shown)
VH: QVQLVESGGGAVQPGESLRLSCAASGFTFSGFDMHWVRQSPGRGLEWVARISHDGSMADYADSLRGRFTISRDNPKNTLYLHMNSLRVEDTALYYCAKDRWRSGSYPAFEKWGQGTMVTVSS
VL: QSVPTQPASVSGSPGQSITISCTGTSSDVGAYNYVSWYQQHPGKAPKLMIYDVSDRPSGVSNRFSGSKSGNTASLTISGLQAEDEADYYCSSYTSSSTYVFGTGTKLTVL
notes: human
B3: 4C2 scFv (scFv, V domains shown)
VH: EVQLVQSGGNLVQPGGSLRLSCTASGFIFSNHWMQWVRQIPGKGLMWVSRINDSGRSTSYAGFVKGRFTMSRDNAKNTLFLQMNSLTAEDTGVYYCVRETWEVLGHLGYEVLDHWGLGTLVTVSS
VL: DIVMTQSPSSLSASVGDRVTITCRASQGISSYLAWYQQKPGKAPKLLIYAASTLQSGVPSRFSGSGSGTEFTLTISSLQPEDFATYYCQQLNSYPRTFGQGTKVDIK
notes: human
B4: 11D8 scFv (scFv)
scFv: EVQLQQSGAELVRPGTSVKLSCKASGYTFTSYWMHWVKQRPGQGLEWIGVIDPSDSYTNYNQKFKGKATLTVDTSSSTAYMQLSSLASEDSAVYYCARYPGNRAMDYWGQGTSVTVSSVDLKSGGSTSGSGKPGSGEGSSGSARDIVLTQSPASLAVSLGQRATISCRASESVDYDGDSYMNWYQQKPGQPPKLLIYAASNLESGIPARFSGSGSGTDFTLNIHPVEEEDAATYYCLQSNEAPWTFGGGTKLEIK
notes: mouse
B5: 1D9 scFv (scFv)
scFv: EVKLVESGGDLVKPGGSLKLSCAASGFTFSSYGMSWVRQTPDKRLEWVATISSGGSYTYYPDNVKGRFTISRDNAKNNLFLQMSHLKSEDTAMYYCARDWDYYYGSYWYFDVWGTGTSVTVSSVDLKSGGSTSGSGKPGSGEGSSGSARENVLTQSPAILSASPGEKVTMTCRASSSVSYMHWYQQKPGSSPRLLIYDTSNLASGVPVRFSGSGSGTSYSLTISRMEAEDAATYYCQQWSSYPYTFGGGTKLEIK
notes: mouse
B6: 1C10 scFv (scFv)
scFv: QIQLLQPGTELVRPGTSVKLSCKASGYTFTNYWMHWVKQRPGQGLEWIGVIDPSDSYTNYNQKFKGKATLTVDTSSSTAYMQLSSLTFEDSAVYYCARYSGPYAMDYWGQGTTLTVSAVDLKSGGSTSGSGKPGSGEGSSGSAREIVLTQSPASLAVSLGQRATISCRACESVDYDGDSYMNWYQQKPGQPPKLLIYAASNLESGIPARFSGSGSGTDFTLNIHPVEEEDAATYYCLQSNEAPWTFGGGTKLEIK
notes: mouse
B7: 1D2 scFv (scFv)
scFv: QVQLKESGAELMKPGASVKLSCKATGYTFTGYWIEWVKQRPGHGLEWIGEILPGSGSTNYNEKFKGKATFTADTSSNTAYMQLSSLTTEDSAIYYCASIYYGHDYWGQGTTLTVSSVDLKSGGSTSGSGKPGSGEGSSGSARDIVMTQSPKFMSTSVGDRVSVTCKASQNVGTNVAWYQQKPGQSPKALIYSASYRYSGVPDRFTGSGSGTDFTLTISNVQSEDLAEYFCQQYNSYPYTFGGGTKLEIK
notes: mouse
B8: 1D8 scFv (scFv)
scFv: EVQLQESGAELVRPGTSVKLSCKASGYTFTSYWMHWVKQRPGQGLEWIGVIDPSDSYTNYNQKFKGKATLTVDTSSSTAYMQLSSLTSEDSAVYYCARGSSGYVNYWGQGTTLTVSSVDLKSGGSTSGSGKPGSGEGSSGSARDIVMSQSPASLAVSLGQRATISCRASESVDYDGDSYMNWYQQKPGQPPKLLIYAASNLESGIPARFSGSGSGTDFTLNIHPVEEEDAATYYCLQSNEAPWTFGGGTKLEIK
notes: mouse
B9: 7C8 scFv (scFv)
scFv: LQLKQSGPGLVKPSQSLSLTCSVTGYSITSGYYWYWIRQFPGNKLEWMGYISYDGSNNYNPSLKNRISITRDTSKNQFFLKLNSVTTEDTATYYCARNLGLWYFDVWGTGTPLTVSSVDLKSGGSTSGSGKPGSGEGSSGSAREIVLTQSPAILSASPGEKVTMTCRASSSVRYMHWYQQKPGSSPKPWIYATSNLASGVPARFSGSGSGTSYSLTISRVEAEDAATYYCQQWSGNAPTFGGGTKLEIK
notes: mouse
B10: 10B4 scFv (scFv)
scFv: QVQLKESGPGLVKPSQTVSLTCTVTGYSITNGNHWWNWIRQVSGSKLEWIGYISSSGYTDINPSLKSRISITRDTSKNQLFLQLNSVTTEDIATYYCARDDGYYEALDYWGQGTSVTVSSVDLKSGGSTSGSGKPGSGEGSSGSARDIVMSQSPAIMSASPGEKVTLTCSASSSVSSNYLYWYQQKPGSSPKLWIYSTSNLASGVPARFSGSGSGTSYSLTISRVEAEDAATYYCQQWSSNPPTFGGGTKLEIK
notes: mouse
B11: 1H5 scFv (scFv)
scFv: EVQLQQSGAELVRPGTSVKLSCKASDYTFTNYWTHWVKQRPGQGLEWIGVIDPSDSYTNYNQKFKGKATLTVDTSSSTAYMQLSSLTSEDSAVYYCARGYYDTMDYWGQGTTVTVSSVDLKSGGSTSGSGKPGSGEGSSGSARDIVLTQSPASLAVSLGQRATISCRASESVDYDGDSYMNWYQQKPGQPPKLLIYAASNLESGIPARFSGSGSGTDFTLNIHPVEEEDAATYYCLQSNEAPWTFGGGTKLEIK
notes: mouse
B12: ING2 scFv (scFv, V domains shown)
VH: QVQLVQSGAEVKKPGSSVKVSCKASGDTFNRNAIAWVRQAPGQGLEWMGRIIPNLRTTHYAQKFQGRVAITADKHTNTVFMELSSLRSEDTAVYYCARDPYYYSYMDVWGKGTTVTVSS
VL: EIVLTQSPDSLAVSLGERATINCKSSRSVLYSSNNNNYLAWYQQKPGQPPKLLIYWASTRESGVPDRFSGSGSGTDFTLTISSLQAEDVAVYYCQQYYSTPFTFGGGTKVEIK
B13: 12A11 scFv (scFv)
scFv: DVQLQESGPGLVKPSQSLSLTCSVTGYSITGGYYWNWIRQFPGNKLEWMGYISYDGSNNYNPSLKNRISITRDTSKNQFFLKLNSVTTEDTATYYCARNMGLWYFDVWGTGTPVTVSAVDLKSGGSTSGSGKPGSGEGSSGSARQIVLTQSPANLSASPGEKVTMTCSASSSVSYMHWYQQKPGSSPKPWIYATSNLASGVPARFSGSGSGTSYSLTISRMEAEDAATYYCQQWSSYPPMYTFGGGTKLELK
notes: mouse
B14: 9B2 scFv (scFv)
scFv: QVQLQQSGAELVRPGASVKLSCTASGFNIEDDYMHWVKQRPEQGLEWIGRIDPANGNTEYAPKFQDKATITADTSSNTAYLQLSRLTSEDTAVYYCARGGWLGNYYAMDYWGQGTSVTVSSVDLKSGGSTSGSGKPGSGEGSSGSARDIVMTQTPLTLSVTIGQPASISCRSSQSLLHNYGNTYLHWYLQKPGQSPKLLIYKVSNRFSGVPDRFSGSGSGTDFTLKISRVEAEDLGVYFCSQGTHVPWTFGGGTKLEIK
notes: mouse

Chain of BoNT/A2 holotoxin (FRI-H1A2) (Q45894 2-1296): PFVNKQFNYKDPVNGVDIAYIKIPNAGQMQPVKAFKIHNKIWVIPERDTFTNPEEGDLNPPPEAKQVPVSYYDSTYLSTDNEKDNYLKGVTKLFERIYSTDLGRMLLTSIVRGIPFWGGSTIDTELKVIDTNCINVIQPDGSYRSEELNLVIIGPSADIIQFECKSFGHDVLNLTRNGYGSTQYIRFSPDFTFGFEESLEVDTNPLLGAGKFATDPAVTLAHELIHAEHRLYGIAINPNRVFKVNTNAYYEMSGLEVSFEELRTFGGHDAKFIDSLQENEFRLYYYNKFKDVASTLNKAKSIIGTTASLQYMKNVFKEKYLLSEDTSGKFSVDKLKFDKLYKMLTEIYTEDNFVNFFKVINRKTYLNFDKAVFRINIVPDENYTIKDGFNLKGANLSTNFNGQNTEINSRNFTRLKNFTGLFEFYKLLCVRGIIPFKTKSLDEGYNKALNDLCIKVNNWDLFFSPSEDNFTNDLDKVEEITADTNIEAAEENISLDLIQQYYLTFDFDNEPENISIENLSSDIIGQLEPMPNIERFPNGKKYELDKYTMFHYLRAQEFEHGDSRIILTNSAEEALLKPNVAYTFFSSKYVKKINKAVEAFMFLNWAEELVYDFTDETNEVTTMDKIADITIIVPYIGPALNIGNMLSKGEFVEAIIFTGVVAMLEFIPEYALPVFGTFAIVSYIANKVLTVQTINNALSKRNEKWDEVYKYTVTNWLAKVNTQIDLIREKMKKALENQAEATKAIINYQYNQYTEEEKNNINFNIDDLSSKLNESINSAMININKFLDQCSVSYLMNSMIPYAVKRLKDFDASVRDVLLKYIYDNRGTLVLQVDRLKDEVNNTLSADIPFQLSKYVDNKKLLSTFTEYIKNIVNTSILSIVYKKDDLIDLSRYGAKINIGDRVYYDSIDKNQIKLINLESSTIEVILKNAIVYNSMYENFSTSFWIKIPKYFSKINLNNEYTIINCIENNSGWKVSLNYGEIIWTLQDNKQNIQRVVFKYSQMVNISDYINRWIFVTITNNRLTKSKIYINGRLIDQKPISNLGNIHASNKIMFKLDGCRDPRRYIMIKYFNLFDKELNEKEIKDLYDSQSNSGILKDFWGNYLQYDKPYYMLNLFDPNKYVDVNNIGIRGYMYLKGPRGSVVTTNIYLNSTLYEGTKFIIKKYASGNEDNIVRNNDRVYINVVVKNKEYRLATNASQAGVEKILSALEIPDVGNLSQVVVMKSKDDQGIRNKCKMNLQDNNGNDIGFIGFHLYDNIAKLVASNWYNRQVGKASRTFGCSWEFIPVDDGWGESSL

The target of the first assay is T1, BoNT/C1 holotoxin. The experiment in a line: yeast scFv FACS.
A word on the Kd: it is a measure of binding affinity in units of concentration. Regarding B1, binding was characterised by a dissociation constant (Kd) of 42 nM.

In the case of B2, binding was put at a Kd of 0.39 nM.

For the molecule B3, the dissociation constant Kd came to 0.19 nM.

For a further assay, the target named is BoNT/A1 holotoxin (Hall hyper) (Clostridium botulinum, UniProt P0DPI0 2-1296). The experiment in a line: yeast scFv FACS.
Turning to B4, the binding result was “no binding”.

Turning to B5, the binding result is “no binding”.

Regarding B6, the binding result was “no binding”.

On to B7, for which the binding result was “no binding”.

B8: the binding result is reported as “no binding”.

Molecule B9 came in with a Kd of 0.73 nM.

B10 came in with a Kd greater than 500 nM.

B11: the binding result is “no binding”.

Take B12: the affinity, expressed as Kd, was 0.11 nM.

With B13, the affinity, expressed as Kd, was 0.66 nM.

The molecule B14 showed a Kd of 232 nM.

Another assay addresses BoNT/A2 holotoxin (FRI-H1A2) (Clostridium botulinum, UniProt Q45894 2-1296). The experiment in a line: yeast scFv FACS.
As for B4, the binding result is given as “no binding”.

Turning to B5, the binding result is “no binding”.

As to B6, the binding result is listed as “no binding”.

With B7, the binding result is given as “no binding”.

As for B8, the binding result is “no binding”.

B9 returned a Kd of 0.45 nM.

Consider B10, for which the Kd stood at 252 nM.

As to B11, the binding result was “no binding”.

As for B12, the dissociation constant Kd is 0.12 nM.

The molecule B13 displayed a Kd of 2.08 nM.

Molecule B14 displayed a Kd of 154 nM.

For a further assay, the target named is BoNT/A light chain (recombinant) (Clostridium botulinum, UniProt P0DPI0 1-448). Put plainly: yeast scFv FACS.
As for B4, the equilibrium dissociation constant (Kd) worked out at 0.22 nM.

Regarding B5, the Kd was 9.13 nM.

For the molecule B6, the Kd came out at 4.85 nM.

For the molecule B7, the equilibrium dissociation constant (Kd) worked out at 6.4 nM.

Regarding B8, the Kd came out at 3.35 nM.

In the case of B9, the Kd was determined as 0.94 nM.

With B10, the Kd was 1.53 nM.

As for B11, the Kd was determined as 10.6 nM.

B12: the dissociation constant (Kd) was greater than 16.3 nM.

For B13, the dissociation constant Kd turned out to be 25.8 nM.

For B14, the Kd stood at 0.67 nM.
